Data taken from PMC4821239, “Molecular architecture of the Dam1 complex–microtubule interaction” (Open Biology, 2016).
Blank lines part the entries; values can stand above or below the binder they belong to.

B2: Duo1 (natural protein, budding yeast, UniProt P53168 1-247, looked up)
chain: MSEQSQLDDSTIDKLIPQIFNEMRSNLNNTTNKFPKSTGGGASDNISANSNSIRSFNSITTQSLLKESESLDKITAMIKNVTAALKNNLPVYVNQVHEVCKSTNSILDSWINIHSQAGYIHKLMSDQTYLKLINDRLHNENVNTNDEDGSTLHNVIALKKKEILDLRQKLENRKGEKDAAPAKPPNQGLNPRYGVQSGRRPVPSAGISNNGRVRKTHVPASKRPSGIPRVTNRWTKPTASSSRKMFR
notes: Duo1, subunit of the budding yeast Dam1 complex; Subunit inside the recombinant 10-subunit complex; also called Duo1 subunit; source: expressed and purified as part of the Dam1 complex as described [3]
B4: Spc34 (natural protein, budding yeast, UniProt P36131 1-295, looked up)
chain: MGESLDRCIDDINRAVDSMSTLYFKPPGIFHNAILQGASNKASIRKDITRLIKDCNHDEAYLLFKVNPEKQSVSRRDGKEGVFDYVIKRDTDMKRNRRLGRPGEKPIIHVPKEVYLNKDRLDLNNKRRRTATTSGGGLNGFIFDTDLIGSSVISNSSSGTFKALSAVFKDDPQIQRLLYALENGSVLMEEESNNQRRKTIFVEDFPTDLILKVMAEVTDLWPLTEFKQDYDQLYHNYEQLSSKLRFIKKEVLLQDDRLKTMSQYHPSSSHDVAKIIRKEKDEIRRLEMEIANLQE
notes: Spc34, subunit of the budding yeast Dam1 complex; Subunit inside the recombinant 10-subunit complex; source: expressed and purified as part of the Dam1 complex as described [3]
B5: Spc19 (natural protein, budding yeast, UniProt Q03954 1-165, looked up)
chain: MTDALEQSVLALEGTVSVLKDSVESLKCANEPSTNLASTMLQTKRVFRLVPEYDVERSKLDLIEEVEPLVRTLGDKLRKSMGRMQRELDTLQQTYELNDLRLKKNISMDDDDALNSPDMGQEYEGRDADDVVMMASSTNEELEELKKLKEKKKQLENKLEILKQK
notes: Spc19, subunit of the budding yeast Dam1 complex; Subunit inside the recombinant 10-subunit complex; also called Sp19; source: expressed and purified as part of the Dam1 complex as described [3]
B6: Ask1 (natural protein, budding yeast, UniProt P35734 1-292, looked up)
chain: MDSASKEETLEKLDQEITVNLQKIDSNLSFCFHKITQDIIPHVATYSEICERIMDSTEWLGTMFQETGLVNLQANAAAPVGNAPVKSLVSNNVGIFPTSAEEASRQSQTDNGPNEADSAVHVNRDVHSMFNNDSIDDFHTANITSTGQILKLPDSSDEDTGSEAVPSREQTDLTGEGHGGADDEQDESTIQRQSRKRKISLLLQQQYGSSSSMVPSPIVPNKMRKQLAHEEHINNDGDNDDENSNNIESSPLKQGHHHPKGQADDNNEGPDEEESTKEVPKPGTIIHFSTNR
notes: Ask1, subunit of the budding yeast Dam1 complex; Subunit inside the recombinant 10-subunit complex; source: expressed and purified as part of the Dam1 complex as described [3]

Columns and labels:
[1] = biological target: the molecule itself; test: cross-linking; BS3, Dam1 complex at 0.05 mg/ml in solution; cross-linked species (approx. 110, 220 and 440 kDa) separated by SDS-PAGE, bands cut out, in-gel trypsin digestion, mass spectrometry
Ask1 [2] = biological target: B6; test: cross-linking; BS3, Dam1 complex at 0.3 mg/ml in BRB80, room temperature 40-60 min, digested in solution, mass spectrometry; some links may be between oligomerizing complexes; details: both partners purified
Spc34 [3] = biological target: B4; test: as above; details: both partners purified
Dam1 [4] = biological target: T1, Dam1 (budding yeast, UniProt P53267 1-343); test: as above; details: both partners purified
T1 construct: Dam1, subunit of the budding yeast Dam1 complex; Subunit inside the recombinant 10-subunit complex; also called Dam1 subunit; source: expressed and purified as part of the Dam1 complex as described [3]
T1 sequence (looked up): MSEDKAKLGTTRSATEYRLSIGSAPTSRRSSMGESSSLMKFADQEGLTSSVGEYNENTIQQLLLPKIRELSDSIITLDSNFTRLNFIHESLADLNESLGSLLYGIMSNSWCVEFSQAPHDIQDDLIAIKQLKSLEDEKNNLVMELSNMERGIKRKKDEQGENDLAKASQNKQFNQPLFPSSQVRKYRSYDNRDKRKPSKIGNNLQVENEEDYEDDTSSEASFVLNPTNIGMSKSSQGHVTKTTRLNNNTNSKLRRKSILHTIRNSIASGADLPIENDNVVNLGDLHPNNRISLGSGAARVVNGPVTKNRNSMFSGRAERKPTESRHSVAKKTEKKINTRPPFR

Spc19 = biological target: B5; test: cross-linking; BS3, Dam1 complex at 0.05 mg/ml in solution; cross-linked species (approx. 110, 220 and 440 kDa) separated by SDS-PAGE, bands cut out, in-gel trypsin digestion, mass spectrometry; details: both partners purified
Ask1 [5] = biological target: B6; test: cross-linking; EDC with Sulfo-NHS, Dam1 complex assembled on taxol-stabilized microtubules in BRB80, pellet washed, room temperature 1 h, digested in solution, mass spectrometry; details: both partners purified
Spc34 [6] = biological target: B4; test: cross-linking; BS3, Dam1 complex at 0.05 mg/ml in solution; cross-linked species (approx. 110, 220 and 440 kDa) separated by SDS-PAGE, bands cut out, in-gel trypsin digestion, mass spectrometry; details: both partners purified
Duo1 = biological target: B2; test: cross-linking; BS3, Dam1 complex at 0.3 mg/ml in BRB80, room temperature 40-60 min, digested in solution, mass spectrometry; some links may be between oligomerizing complexes; details: both partners purified
Dam1 [7] = biological target: T1, Dam1; test: cross-linking; BS3, size-exclusion fraction of the Dam1 complex Duo1Δ184 eluting as the full complex, mass spectrometry; details: both partners purified

B1: Dam1 complex (complex, budding yeast)
chain 1: MSEDKAKLGTTRSATEYRLSIGSAPTSRRSSMGESSSLMKFADQEGLTSSVGEYNENTIQQLLLPKIRELSDSIITLDSNFTRLNFIHESLADLNESLGSLLYGIMSNSWCVEFSQAPHDIQDDLIAIKQLKSLEDEKNNLVMELSNMERGIKRKKDEQGENDLAKASQNKQFNQPLFPSSQVRKYRSYDNRDKRKPSKIGNNLQVENEEDYEDDTSSEASFVLNPTNIGMSKSSQGHVTKTTRLNNNTNSKLRRKSILHTIRNSIASGADLPIENDNVVNLGDLHPNNRISLGSGAARVVNGPVTKNRNSMFSGRAERKPTESRHSVAKKTEKKINTRPPFR
chain 2: MSEQSQLDDSTIDKLIPQIFNEMRSNLNNTTNKFPKSTGGGASDNISANSNSIRSFNSITTQSLLKESESLDKITAMIKNVTAALKNNLPVYVNQVHEVCKSTNSILDSWINIHSQAGYIHKLMSDQTYLKLINDRLHNENVNTNDEDGSTLHNVIALKKKEILDLRQKLENRKGEKDAAPAKPPNQGLNPRYGVQSGRRPVPSAGISNNGRVRKTHVPASKRPSGIPRVTNRWTKPTASSSRKMFR
chain 3: MMASTSNDEEKLISTTDKYFIEQRNIVLQEINETMNSILNGLNGLNISLESSIAVGREFQSVSDLWKTLYDGLESLSDEAPIDEQPTLSQSKTK
chain 4: MDSIDEQIAIKRKELQSLQKITSLTDGLKIQLTELNEQIKEMGMNADSVAQLMNNWDSIINNISQASLGLLQYAEGDYEIGPWKDSKKKESEQSNETGLEAQENDKNDEDNDEDEDLVPLPETMVRIRVDGNE
chain 5: MEHNLSPLQQEVLDKYKQLSLDLKALDETIKELNYSQHRQQHSQQETVSPDEILQEMRDIEVKIGLVGTLLKGSVYSLILQRKQEQESLGSNSK
chain 6: MENPHEQVQANILSRIIGNVKRLNESVAILNQELVTINNRNKNLEIMGAICDNYHSSVQFNLEATNNKKPPL
chain 7: MNANKQRQYNQLAHELRELQTNLQETTKQLDIMSKQCNENLVGQLGKVHGSWLIGSYIYYMEQMLGKTQ
chain 8: MDSASKEETLEKLDQEITVNLQKIDSNLSFCFHKITQDIIPHVATYSEICERIMDSTEWLGTMFQETGLVNLQANAAAPVGNAPVKSLVSNNVGIFPTSAEEASRQSQTDNGPNEADSAVHVNRDVHSMFNNDSIDDFHTANITSTGQILKLPDSSDEDTGSEAVPSREQTDLTGEGHGGADDEQDESTIQRQSRKRKISLLLQQQYGSSSSMVPSPIVPNKMRKQLAHEEHINNDGDNDDENSNNIESSPLKQGHHHPKGQADDNNEGPDEEESTKEVPKPGTIIHFSTNR
chain 9: MTDALEQSVLALEGTVSVLKDSVESLKCANEPSTNLASTMLQTKRVFRLVPEYDVERSKLDLIEEVEPLVRTLGDKLRKSMGRMQRELDTLQQTYELNDLRLKKNISMDDDDALNSPDMGQEYEGRDADDVVMMASSTNEELEELKKLKEKKKQLENKLEILKQK
chain 10: MGESLDRCIDDINRAVDSMSTLYFKPPGIFHNAILQGASNKASIRKDITRLIKDCNHDEAYLLFKVNPEKQSVSRRDGKEGVFDYVIKRDTDMKRNRRLGRPGEKPIIHVPKEVYLNKDRLDLNNKRRRTATTSGGGLNGFIFDTDLIGSSVISNSSSGTFKALSAVFKDDPQIQRLLYALENGSVLMEEESNNQRRKTIFVEDFPTDLILKVMAEVTDLWPLTEFKQDYDQLYHNYEQLSSKLRFIKKEVLLQDDRLKTMSQYHPSSSHDVAKIIRKEKDEIRRLEMEIANLQE
notes: Dam1, budding yeast; Duo1, budding yeast; Dad1, budding yeast; Dad2, budding yeast; Dad3, budding yeast; Dad4, budding yeast; Hsk3, budding yeast; Ask1, budding yeast; Spc19, budding yeast; Spc34, budding yeast; 10-subunit complex; also called heterodecameric Dam1 complex; wild-type Dam1 complex; source: expressed and purified as described [3]; copies: + + + + + + + + +
stoichiometry N [1]: 2

Binder: B2
binding result (Ask1 [2]): binds
binding result (Spc34 [3]): binds
binding result (Dam1 [4]): binds

binding result (Spc19): binds
binding result (Ask1 [5]): binds
binding result (Dam1 [4]): binds
B3: Dad2 (natural protein, budding yeast, UniProt P36162 1-133, looked up)
chain: MDSIDEQIAIKRKELQSLQKITSLTDGLKIQLTELNEQIKEMGMNADSVAQLMNNWDSIINNISQASLGLLQYAEGDYEIGPWKDSKKKESEQSNETGLEAQENDKNDEDNDEDEDLVPLPETMVRIRVDGNE
notes: Dad2, subunit of the budding yeast Dam1 complex; Subunit inside the recombinant 10-subunit complex; source: expressed and purified as part of the Dam1 complex as described [3]

Binder: B4
binding result (Dam1 [4]): binds

Binder: B5
binding result (Spc34 [6]): binds
binding result (Duo1): binds
binding result (Ask1 [2]): binds
binding result (Dam1 [4]): binds

Binder: B6
binding result (Spc34 [3]): binds
binding result (Dam1 [4]): binds

binding result (Dam1 [7]): binds
B7: Duo1Δ184 (domain or fragment, budding yeast, UniProt P53168 1-183, looked up)
chain: MSEQSQLDDSTIDKLIPQIFNEMRSNLNNTTNKFPKSTGGGASDNISANSNSIRSFNSITTQSLLKESESLDKITAMIKNVTAALKNNLPVYVNQVHEVCKSTNSILDSWINIHSQAGYIHKLMSDQTYLKLINDRLHNENVNTNDEDGSTLHNVIALKKKEILDLRQKLENRKGEKDAAPAK
notes: Duo1, budding yeast; stop codon inserted at position 184; Subunit inside the Dam1 complex Duo1Δ184; also called Duo1 lacking its C terminus (Δ184); source: purified as part of the Dam1 complex Duo1Δ184 (Ni–NTA, Superose 6 size-exclusion chromatography)
